Results on 17 molecules are retold here after patent US20240254220A1 (CENTRICSBIO, published 2024).

Numbering of substitutions follows the chain as printed.

B1: CB301_H3L1_E6 (antibody, V domains shown)
VH: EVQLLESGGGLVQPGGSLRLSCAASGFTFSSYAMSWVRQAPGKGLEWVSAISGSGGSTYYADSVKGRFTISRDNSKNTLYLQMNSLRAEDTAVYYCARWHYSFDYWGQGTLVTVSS
VL: QSVLTQPPSASGTPGQRVTISCRGNNIGSKRVHWYQQLPGTAPKLLIYSYNHRPSGVPDRFSGSKSGTSASLAITGLRSEDEADYYCNTWDDSLEGPVFGGGTKLTVL
B2: CB301_H3L1_A10 (antibody, V domains shown)
VH: EVQLLESGGGLVQSGGSLRLSCAASGFTFSSYGMHWVRQAPGKGLEWVSAISGSGGSTYYADSVKGRFTISRDNSKNTLYLQMNSLRAEDTAVYYCVRGYGAMDVWGQGTLVTVSS
VL: QSVLTQPPSASGTPGQRVTISCTRSSGSIASNYVQWYQQLPGTAPKLLIYRNNQRPSGVPDRFSGSKSGTSASLAISGLRSEDEADYYCSSYTTSSTLVFGGGTKLTVL
B3: CB301_H3L1_A12 (antibody, V domains shown)
VH: B2 VH with S14P, G33A, E89K, V97A, R98S, A102L
VL: QSVLTQPPSASGTPGQRVTISCTGTSSDVGNYNLVSWYQQLPGTAPKLLIYSNNQRPSGVPDRFSGSKSGTSASLAISGLRSEDEADYYCSSYTGSNALLFGGGTKLTVL
B4: SK14 (antibody, V domains shown)
VH: EVQLLESGGGLVQPGGSLRLSCAASGFTFSNFAIAWVRQAPGKGLEWVSAISGRGTSTYYADSVKGRFTISRDNSKNTLYLQMNSLRAEDTAVYYCARGVSGFDSWGQGTLVTVSS
VL: EIVLTQSPGTLSLSPGERATLSCRASQSISSHLAWYQQKPGQAPRLLIYDTSNRATGIPDRFSGSGSGTDFTLTISRLEPEDFAVYYCQQSYSTPFTFGQGTKVEIK
notes: also called anti-CD300c monoclonal antibody SK14; CB301 antibody SK14
B5: SK13 (antibody, V domains shown)
VH: RVQLLESGGGLVQPGGSLRLSCAASGFTFSDYAMSWVRQAPGKGLEWVSSISSSSSYIYYTDSVKGRFTISRDNSKNTLYLQMNSLRAEDTAVYYCARGGYGFDYWGQGTLVTVSS
VL: EIVLTQSPGTLSLSPGERATLSCRASQSISSYLNWYQQKPGQAPRLLIYSASSRPQGIPDRFSGSGSGTDFTLTISRLEPEDFAVYYCQQYDDLPFTFGQGTKVEIK
notes: also called anti-CD300c monoclonal antibody SK13; CB301 antibody SK13
B6: CL5 (antibody, V domains shown)
VH: RVQLLESGGGLVQPGGSLRLSCAASGFTFSSYAMHWVRQAPGKGLEWVSSISGGGYGTYYADSVKGRFTISRDNSKNTLYLQMNSLRAEDTAVYYCARSTVWAFDIWGQGTLVTVSS
VL: QSVLTQPPSASGTPGQRVTISCSGNNIGSKSVHWYQQLPGTAPKLLIYDVSKRPSERPDRFSGSKSGTSASLAISDLRSEDEADYYCQSFDSSGTWIFGGGTKLTVL
notes: also called anti-CD300c monoclonal antibody CL5; CB301 antibody CL5
B7: SK17 (antibody, V domains shown)
VH: EVQLLESGGGLVQPGGSLRLSCAASGFTFSSYYWSWVRQAPGKGLEWVSTITGSGGSTDYANSVKGRFTISRDNSKNTLYLQMNSLRAEDTAVYYCATGGGIFDYWGQGTLVTVSS
VL: EIVLTQSPGTLSLSPGERATLSCQASQTISNYLNWYQQKPGQAPRLLIYDASNRATGIPDRFSGSGSGTDFTLTISRLEPEDFAVYYCQQYNSYPPSFGQGTKVEIK
notes: also called anti-CD300c monoclonal antibody SK17; CB301 antibody SK17
B8: CK3 (antibody, V domains shown)
VH: RVQLLESGGGLVQPGGSLRLSCAASGFTFSSYAISWVRQAPGKGLEWVSATSGSGRATYYADSVKGRFTISRDNSKNTLYLQMNSLRAEDTAVYYCARDTWWEGYFDLWGQGTLVTVSS
VL: EIVLTQSPGTLSLSPGERATLSCQASHISTHLNWYQQKPGQAPRLLIYGASSRATGIPDRFSGSGSGTDFTLTISRLEPEDFAVYYCQQYNTYPPTFGQGTKVEIK
notes: also called anti-CD300c monoclonal antibody CK3; CB301 antibody CK3
B9: CL9 (antibody, V domains shown)
VH: EVQLLESGGGLVQPGGSLRLSCAASGFTFSSYYWSWVRQAPGKGLEWVSAISGSGGSTYYADSVKGRFTISRDNSKNTLYLQMNSLRAEDTAVYYCARIDVYGFDIWGQGTLVTVSS
VL: QSVLTQPPSASGTPGQRVTISCSGSTSNIGTNYVYWYQQLPGTAPKLLIYDNNNRPSGVPDRFSGSKSGTSASLAISGLRSEDEADYYCQTWDSSTDVVFGGGTKLTVL
notes: also called anti-CD300c monoclonal antibody CL9; CB301 antibody CL9
B10: CL4 (antibody, V domains shown)
VH: RVQLLESGGGLVQPGGSLRLSCAASGFTFGSNYMSWVRQAPGKGLEWVSTISGSGTSTYYADSLKGRFTISRDNSKNTLYLQMNSLRAEDTAVYYCARGMWGMDVWGQGTLVTVSS
VL: QSVLTQPPSASGTPGQRVTISCTGKHRHTVNWYQLLPGTAPKLLIYLDSERPSGVPDRFSGSKSGTSASLAISGLRSEDEADYYCQSYDSSSVVFGGGTKLTVL
notes: also called anti-CD300c monoclonal antibody CL4; CB301 antibody CL4
B11: CL6 (antibody, V domains shown)
VH: EVQLLESGGGLVQPGGSLRLSCAASGFTFSSYGMHWVRQAPGKGLEWVSAISGSGGSTYYADSVKGRFTISRDNSKNTLYLQMNSLRAEDTAVYYCAVSGAGRGFFDYWGQGTLVTVSS
VL: QSVLTQPPSASGTPGQRVTISCSGSSSNIGSNYVYWYQQLPGTAPKLLIYEDNKRPSGVPDRFSGSKSGTSASLAISGLRSEDEADYYCSSYTSSSTVIFGGGTKLTVL
notes: also called anti-CD300c monoclonal antibody CL6; CB301 antibody CL6
B12: CK1 (antibody, V domains shown)
VH: EVQLLESGGGLVQPGGSLRLSCAASGFTFSRYAMTWVRQAPGKGLEWVSSMSGTGGTTYYADSVKGRFTISRDNSKNTLYLQMNSLRAEDTAVYYCARGAYGFDHWGQGTLVTVSS
VL: EIVLTQSPGTLSLSPGERATLSCRASQSIGNYLNWYQQKPGQAPRLLIYDASNLETGIPDRFSGSGSGTDFTLTISRLEPEDFAVYYCQQSSAIPYTFGQGTKVEIK
notes: also called anti-CD300c monoclonal antibody CK1; CB301 antibody CK1
B13: SK16 (antibody, V domains shown)
VH: B4 VH with E1R, N31S, F32Y, I34M, A35S, S52N, R54S, T56G, Y59L
VL: B4 VL with A25I, H32Y, A34N, T51A, N53L, S93K, F96I
notes: also called anti-CD300c monoclonal antibody SK16; CB301 antibody SK16
B14: SK15 (antibody, V domains shown)
VH: RVQLLESGGGLVQPGGSLRLSCAASGFTFSSYAMHWVRQAPGKGLEWVSAINGSGGSTYYADSVKGRFTISRDNSKNTLYLQTNSLRAEDTAVYYCARGLQGFDYWGQGTLVTVSS
VL: B12 VL with R24Q, S28D, G30T, N53S, S92Y, A93S, I94T, Y96I
notes: also called anti-CD300c monoclonal antibody SK15; CB301 antibody SK15
B15: CK2 (antibody, V domains shown)
VH: B2 VH with S14P, G56T, T58I, V97A, Y100G, G101T, M103F, V105Y
VL: B4 VL with S28R, I29S, S30D, S31N, H32Y, T51A, I106T
notes: also called anti-CD300c monoclonal antibody CK2; CB301 antibody CK2
B16: SK11 (antibody, V domains shown)
VH: B14 VH with S31T, A33G, N52S, T83M, Q101S, F103L
VL: B4 VL with A25S, S28G, S30T, S31N, H32Y, T51A, F96L
notes: also called anti-CD300c monoclonal antibody SK11; CB301 antibody SK11
B17: SK12 (antibody, V domains shown)
VH: B14 VH with N52S, S57D, Y60H, T83M, A97T, Q101S
VL: EIVLTQSPGTLSLSPGERATLSCRASQSISSYLNWYQQKPGQAPRLLIYDASNRAPGIPDRFSGSGSGTDFTLTISRLEPEDFAVYYCQQSYSIPITFGQGTKVEIKF
notes: also called anti-CD300c monoclonal antibody SK12; CB301 antibody SK12

For one assay, the target named is T1, CD300c antigen (11832-H08H, Sino Biological) (human, UniProt Q08708 21-183).
T1 construct: Bought antigen; also called CD300c protein; CD300 antigen-like family member C
T1 sequence (looked up): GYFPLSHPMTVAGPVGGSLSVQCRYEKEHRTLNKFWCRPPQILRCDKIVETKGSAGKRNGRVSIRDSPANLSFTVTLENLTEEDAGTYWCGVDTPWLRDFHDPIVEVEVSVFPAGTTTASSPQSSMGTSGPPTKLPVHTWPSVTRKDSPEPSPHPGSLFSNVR
Nature of the assay: selection ELISA of Example 1.2, scFv periplasmic extract on coated CD300c antigen. The method, then: In order to select anti-CD300c monoclonal antibodies specifically binding, with high binding affinity, to a CD300c antigen, ELISA was performed using the library pool obtained by the same method as in Example 1.1. More specifically, each of a CD300c antigen and a CD300a antigen in a coating buffer (0.1 M sodium carbonate, pH 9.0) was dispensed into an ELISA plate at a concentration of 5 μg/mL per well, followed by incubation at room temperature for 3 hours, to allow the antigen to bind to the plate. The unbound antigens were removed by washing three times using phosphate buffered saline-Tween 20 (PBST), and then 350 μL of PBST supplemented with 2% bovine serum albumin (BSA) was added to each well, followed by incubation at room temperature for 1 hour and then washing again using PBST. Then, 25 μg of a periplasmic extract containing scFv obtained by the same method as in Example 1.1 was added thereto, followed by incubation for 1 hour at room temperature for antigen binding. After 1 hour, the unbound scFv was removed by washing three times using PBST, and then 4 μg/mL of an antibody for detection was added, followed by incubation again at room temperature for 1 hour. Subsequently, the unbound antibodies for detection were removed using PBST, and then HRP-conjugated anti-rabbit IgG was added, followed by incubation at room temperature for 1 hour. The unbound antibodies were removed again using PBST. Subsequently, 3,3′,5,5′-tetramethylbenzidine (TMB) solution was added, followed by incubation for 10 minutes for development. Then, 2 N sulfuric acid solution was added to terminate the development reaction, and the absorbance was measured at 450 nm to identify the antibodies specifically binding to the CD300c antigen.
A general note: ELISA stands for enzyme-linked immunosorbent assay.
Take B1: the binding result is “binds”.

On to B2, for which the binding result is recorded as “binds”. In the case of B3, the binding result is “binds”.

The target in another assay is T1, CD300c antigen (11832-H08H, Sino …). Nature of the assay: binding ELISA, plate coated with CD300c antigen (8 µg/mL), HRP anti-Fc IgG detection. The method, then:
In order to identify the antigen-binding ability of the anti-CD300c monoclonal antibodies produced in Example 1, binding ELISA was performed. Specifically, a CD300c antigen (11832-H08H, Sino Biological) or a CD300a antigen (12449-H08H, Sino Biological) in a coating buffer (0.1 M sodium carbonate, pH 9.0) was dispensed into an ELISA plate at a concentration of 8 μg/mL per well, followed by incubation at room temperature for 3 hours to allow the antigen to be bound to the plate. The unbound antigens were removed by washing three times using phosphate buffered saline-Tween 20 (PBST), and then 300 μL of PBST supplemented with 5% bovine serum albumin (BSA) was added to each well, followed by incubation at room temperature for 1 hour and then washing using PBST. Then, an anti-CD300c monoclonal antibody was diluted in quadruplicate and added thereto, followed by incubation for 1 hour at room temperature for antigen binding. After 1 hour, washing was performed three times using PBST to remove unbound anti-CD300c monoclonal antibody, and then 4 μg/mL of an antibody for detection (HRP conjugated anti-Fc IgG) was added, followed by incubation again at room temperature for 1 hour. Subsequently, the unbound antibody for detection was removed using PBST, and then TMB solution was added, followed by incubation for 10 minutes for development. Then, 2 N sulfuric acid solution was added to terminate the development reaction, and the absorbance was measured at 450 nm to identify the antibodies specifically binding to the CD300c antigen.
Molecule B4 gave an EC50 of 0.065 µg/mL.

B5 had a half-maximal effective concentration (EC50) of 0.044 µg/mL. B6 yielded an EC50 of 0.032 µg/mL.

Molecule B7 registered an EC50 of 0.054 µg/mL. The same measure, in the same setting: next, B8: 0.793 µg/mL; B9: 0.094 µg/mL.

Regarding B10, it took 0.031 µg/mL to reach a half-maximal effect (EC50). Molecule B11 showed an EC50 of 0.148 µg/mL.

For the molecule B12, the 50% effective concentration (EC50) came to 0.056 µg/mL. B13 had an EC50 of 2.42 µg/mL. This EC50 lies about 43-fold higher than the previous one. On the same count and under the same terms, next, B14: 14.7 µg/mL; B15: 0.033 µg/mL; B16: 0.052 µg/mL.

For the molecule B17, the midpoint of the response, the EC50, lay at 0.067 µg/mL.

The EC50 is the concentration that produces a half-maximal response. Lower therefore signals higher potency in that assay.
